Reference: publication doi:10.1101/2025.08.27.672337, “Cyclin-dependent kinase-like 5 (CDKL5) binds to talin and is anchored at the postsynaptic density via direct interaction with PDZ domains” (bioRxiv, 2025)
Values joined by “and” are separate entries in the source; they are usually repeats but may differ in a detail not shown here. Identical values can stand only once. One block for each binder: values may come before it. Where no end group is shown, it is not given here. maleimide‑fluorescein = Maleimide-fluorescein dye, coupled to a cysteine thiol

Experiments:
Settings in all cases: both partners purified
talin1 R8 = target: T1, talin1 R8 (mouse, UniProt P26039 1461-1580); assay: NMR titration; 15N-HSQC of 15N-labelled protein at 150 µM with peptide added (1:0.5 to 1:5 molar ratios); 12 mM NaH2PO4, 6 mM Na2HPO4, pH 6.5, 50 mM NaCl, 2 mM DTT, 5% D2O, 298K
T1 construct: talin1 rod domain R8, mouse, UniProt P26039, residues 1461-1580; Expressed from pET151; His-tag removed with AcTEV protease; 15N-labelled for NMR; also called talin R8; R8 rod domain of talin

talin1 R7R8 [1] = target: T2, talin1 R7R8 (mouse, UniProt P26039 1357-1659); assay: as above
T2 construct: talin1 rod domains R7R8, mouse, UniProt P26039, residues 1357-1659; Expressed from pET151; His-tag removed with AcTEV protease; 15N-labelled for NMR; also called talin R7R8

SHANK1 PDZ domain [2] = target: T3, SHANK1 PDZ domain (mouse, UniProt D3YZU1 654-762); assay: fluorescence polarisation; dye-labelled peptide against a twofold serial dilution of the protein in PBS (10 mM Na2HPO4, 1.8 mM KH2PO4, pH 7.4, 137 mM NaCl, 2.7 mM KCl), 25°C; one-site total binding fit; triplicate
T3 construct: SHANK1 PDZ domain, mouse, UniProt D3YZU1, residues 654-762; Expressed from pET151; His-tag removed with AcTEV protease; 15N-labelled for NMR
T3 sequence (looked up): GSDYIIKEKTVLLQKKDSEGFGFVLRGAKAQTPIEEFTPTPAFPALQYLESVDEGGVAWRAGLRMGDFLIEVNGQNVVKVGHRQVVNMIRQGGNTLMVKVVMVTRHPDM

PSD-95 PDZ2 domain [3] = target: T4, PSD-95 PDZ2 domain (human, UniProt P78352 155-249); assay: as above
T4 construct: PSD-95 (postsynaptic density protein 95) PDZ2, human, UniProt P78352, residues 155-249; codon optimised synthetic gene; Expressed from pET151; His-tag removed with AcTEV protease; 15N-labelled for NMR; also called PDZ2 of PSD-95

PSD-95 PDZ3 domain [4] = target: T5, PSD-95 PDZ3 domain (human, UniProt P78352 302-402); assay: as above
T5 construct: PSD-95 (postsynaptic density protein 95) PDZ3, human, UniProt P78352, residues 302-402; codon optimised synthetic gene; Expressed from pET151; His-tag removed with AcTEV protease; 15N-labelled for NMR; also called PDZ3 of PSD-95

SHANK3 PDZ domain = target: T6, SHANK3 PDZ domain (mouse, UniProt Q4ACU6 570-664); assay: as above
T6 construct: SHANK3 PDZ domain, mouse, UniProt Q4ACU6, residues 570-664; Expressed from pET151; His-tag removed with AcTEV protease
T6 sequence (looked up): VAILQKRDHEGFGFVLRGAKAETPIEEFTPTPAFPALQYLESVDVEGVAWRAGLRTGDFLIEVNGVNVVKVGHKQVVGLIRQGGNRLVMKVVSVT

SHANK2 PDZ domain [5] = target: T7, SHANK2 PDZ domain (mouse, UniProt Q80Z38 247-340); assay: as above
T7 construct: SHANK2 PDZ domain, mouse, UniProt Q80Z38, residues 247-340; Expressed from pET151; His-tag removed with AcTEV protease; 15N-labelled for NMR
T7 sequence (looked up): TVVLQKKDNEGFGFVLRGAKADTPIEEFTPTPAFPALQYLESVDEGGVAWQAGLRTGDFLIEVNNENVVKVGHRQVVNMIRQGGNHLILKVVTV

talin1 R7R8 [6] = target: T2, talin1 R7R8; assay: as above
SHANK1 PDZ domain [7] = target: T3, SHANK1 PDZ domain; assay: NMR titration; 15N-HSQC of 15N-labelled protein at 150 µM with peptide added (1:0.5 to 1:5 molar ratios); 12 mM NaH2PO4, 6 mM Na2HPO4, pH 6.5, 50 mM NaCl, 2 mM DTT, 5% D2O, 298K
PSD-95 PDZ2 domain [8] = target: T4, PSD-95 PDZ2 domain; assay: as above
PSD-95 PDZ3 domain [9] = target: T5, PSD-95 PDZ3 domain; assay: as above
SHANK2 PDZ domain [10] = target: T7, SHANK2 PDZ domain; assay: as above

T4 sequence (P78352 155-249): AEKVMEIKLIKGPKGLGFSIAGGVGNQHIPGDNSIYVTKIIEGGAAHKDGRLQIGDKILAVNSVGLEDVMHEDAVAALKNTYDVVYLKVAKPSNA
T5 sequence (P78352 302-402): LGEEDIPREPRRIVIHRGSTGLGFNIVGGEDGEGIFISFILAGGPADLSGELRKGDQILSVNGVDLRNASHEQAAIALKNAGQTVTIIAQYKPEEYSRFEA
T2 sequence (P26039 1357-1659): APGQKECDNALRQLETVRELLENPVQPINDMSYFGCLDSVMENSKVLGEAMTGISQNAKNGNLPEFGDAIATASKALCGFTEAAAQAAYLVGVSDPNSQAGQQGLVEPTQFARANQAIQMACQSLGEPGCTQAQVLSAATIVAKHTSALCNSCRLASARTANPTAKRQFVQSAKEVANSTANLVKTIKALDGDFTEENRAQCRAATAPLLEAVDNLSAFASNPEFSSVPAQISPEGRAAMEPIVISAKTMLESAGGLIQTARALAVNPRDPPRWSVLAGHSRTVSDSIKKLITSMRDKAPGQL
T1 sequence (P26039 1461-1580): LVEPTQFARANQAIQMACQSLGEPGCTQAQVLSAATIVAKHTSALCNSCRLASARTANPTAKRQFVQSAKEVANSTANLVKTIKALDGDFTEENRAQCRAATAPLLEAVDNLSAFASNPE

binding result (talin1 R8): binds | binding result (talin1 R7R8 [1]): binds
B1: CDKL5^213-234 peptide (NMR) (peptide)
peptide: CGESEIDQLFTIQKVLGPLPSEQ
notes: single non-native N-terminal cysteine with which the synthetic peptides were designed; source: synthetic peptide (GLBiochem, Shanghai)

Kd (SHANK1 PDZ domain [2]): 8.5 µM and 7.6 µM | Kd (PSD-95 PDZ2 domain [3]): 31.3 µM | Kd (PSD-95 PDZ3 domain [4]): 40.7 µM | Kd (SHANK3 PDZ domain): 8.6 µM | Kd (SHANK2 PDZ domain [5]): 5.2 µM
B2: CDKL5-1^941-960 peptide, fluorescein-labelled (peptide)
peptide: C(maleimide‑fluorescein)YNRTNRSRMPNLNDLKETAL
notes: single non-native N-terminal cysteine for coupling the dye; ends in -ETAL (957-960); also called CDKL5-1 C-terminal tail peptide; CDKL5 isoform 1 C-terminus; source: synthetic peptide (GLBiochem, Shanghai)

fold weaker affinity than CDK1^206-223 with talin1 R7R8 (talin1 R7R8 [6]): 2.5 fold
B3: CDKL5^213-234 peptide, dye-labelled for FP (peptide)
peptide: C(maleimide‑fluorescein)GESEIDQLFTIQKVLGPLPSEQ
notes: single non-native N-terminal cysteine for coupling the dye; source: synthetic peptide (GLBiochem, Shanghai)

binding result (SHANK1 PDZ domain [7]): binds | binding result (PSD-95 PDZ2 domain [8]): binds | binding result (PSD-95 PDZ3 domain [9]): binds | binding result (SHANK2 PDZ domain [10]): binds
B4: CDKL5-1^941-960 peptide, unlabelled (peptide)
peptide: CYNRTNRSRMPNLNDLKETAL
notes: single non-native N-terminal cysteine with which the synthetic peptides were designed; ends in -ETAL (957-960); Used unlabelled in NMR; also called CDKL5-1 C-terminal tail peptide; CDKL5-1 peptide; source: synthetic peptide (GLBiochem, Shanghai)
